This experiment has as its target recombinant conformational HCV E2 antigen (HCV genotype 1a) (hepatitis C virus, HCV1 (genotype 1a)) (UniProt P26664). The experiment is described as follows: NOB assay: control Fab pre-mixed with E2 1a, E2 binding to MOLT-4 cells by flow cytometry; 50% reduction titer, Exp. I. A general note: In flow cytometry, cells or beads pass a laser one at a time.

Chain of recombinant conformational HCV E2 antigen (HCV genotype 1a) (hepatitis C virus, HCV1 (genotype 1a)) (P26664 383-715): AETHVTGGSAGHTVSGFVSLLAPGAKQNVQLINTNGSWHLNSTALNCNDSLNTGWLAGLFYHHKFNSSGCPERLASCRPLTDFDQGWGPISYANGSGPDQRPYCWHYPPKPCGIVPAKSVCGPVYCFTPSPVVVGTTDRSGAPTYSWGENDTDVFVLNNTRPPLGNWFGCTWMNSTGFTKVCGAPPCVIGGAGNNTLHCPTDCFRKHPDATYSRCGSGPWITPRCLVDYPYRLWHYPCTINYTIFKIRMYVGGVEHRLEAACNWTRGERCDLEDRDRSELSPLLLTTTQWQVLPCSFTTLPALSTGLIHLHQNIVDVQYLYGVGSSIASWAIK

As usually defined, the IC50 is the concentration needed to halve the response being measured. Consider “negative control Fab clone b12 directed to HIV-1 envelope glycoprotein gp120”, for which the concentration for half-maximal inhibition (IC50) is > 10 mg/L.

The record behind these values is US6747136.
